Measured values reported in the supplement of paper PMC9170038.

Tested on: MS2 coat protein
Experiment: apparent KD of MS2 coat protein; designed switch direction (-1 OFF switch, 1 ON switch): 1; higher = weaker reporter binding
Summary of the method: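 For each design, the apparent KD is the median over clusters of curves fitted to normalised cluster fluorescence. Clusters held RNA switches with common flanks, transcribed on Illumina chips by stalled E. coli RNA polymerase. These were titrated with SNAP-549-labelled MS2 coat protein, doubling from 0.7 or 1.5 nM to 3 µM, without input, with 200 uM small-molecule ligand, or with an oligonucleotide input.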

[1] = input ligand: microRNA oligo, concentration not stated
[2] = Eterna round: R95, input ligand: FMN 200 uM
[3] = Eterna round: R95, input ligand: microRNA oligo, concentration not stated
[4] = Eterna round: R95, input ligand: none

Sequence | apparent KD of MS2 coat protein (input ligand: FMN 200 uM) [µM] | apparent KD of MS2 coat protein [1] [µM] | apparent KD of MS2 coat protein (input ligand: none) [µM] | apparent KD of MS2 coat protein [2] [µM] | apparent KD of MS2 coat protein [3] [µM] | apparent KD of MS2 coat protein [4] [µM]
GAAGACAUAGUUCAGGAUAUAGGAAUAGUCACAUGAGGAUCACCCAUGUGCAUUUAUAUGCGCACUUAGAAGGGAGGUAGUUAUC [SameState2 Malc#23] (Eterna round: R96, puzzle: Same State 2) | 0.0394 | 0.0294 | 0.0394 | – | – | –
UGGCUCAGACGAGGAUAUAUGUAAUAACAUGAGGAUCACCCAUGUGUCGAGCUUCGGCUCGACACAUAGAAGGCGUCUGAGCCU [SSNG2/2-A3] (Eterna round: R96, puzzle: Same State NG 2) | 0.0127 | 0.0202 | 0.0333 | – | – | –
UAACAGUACAAUUUAGAUCUACAUGAGGAUCACCCAUGUACUGAGGAUAUCAGCUCGAAUAGAGCUGAGAAGGCAGAAGAACUA [SSNG3/11-A1] (Eterna round: R96, puzzle: Same State NG 3) | 0.0358 | 0.127 | 0.203 | – | – | –
GCCAUCGAGUGAGGAUAUGGCACCGAAACGGUGCCAGAAGGCAUGUCAAAAGACAUGAGGAUCACCCAUGUAUUAUCGAUGGCA [Mat - Same State NG 1 - JL mod - D88] (Eterna round: R96, puzzle: Same State NG 1) | 0.0285 | 0.208 | 0.237 | – | – | –
GCCGGCUGGUGAGGAUAUGGCACCUUAUUGGUGCCAGAAGGCAUGUCAAUUGACAUGAGGAUCACCCAUGUAUUAUAGUUGGCG [salish99_SSNG1_r04_605] (Eterna round: R96, puzzle: Same State NG 1) | 0.414 | 0.0693 | 0.0561 | – | – | –
AAUAAACAUGAGGAUCACCCAUGUAAUAUAAAUGGAGGAUAUGCAAUUAUUAAUUAUUAAGUAGAAGGUCGAAUAA [Lollin - Epsilon 1] (puzzle: Same State 1) | – | – | – | 0.0621 | 0.0557 | 0.0912
GUUACAUGAGGAUCACCCAUGUAUGUGUGGGAGUAAGUGUCUUAGGAUAUCUAGUAUGUAAUUUAAGAGAAGGAAGAUUGUUGU [JMF's solution 56] (Eterna round: R96, puzzle: Same State NG 3) | 0.217 | 0.264 | 0.261 | – | – | –
GGAGCCGGCCUAGGAUAUUUCAUAAUAUUACAUGAGGAUCACCCAUGUAGGCCAGAAGGCCUUGGGAAGAAGGAGGUCGGCUCC [Loop Effect - U26,U28,U29] (Eterna round: R96, puzzle: Same State NG 2) | – | 0.0307 | – | – | – | –
GUUAAACAUGAGGAUCACCCAUGUAAUAAUAUGGGAGGAUAUCAGAAAGUAUGUAUGAAAUGAGAAGGCCUAAUUG [Mat - Same State 1 - Mod of Eli - D78] (puzzle: Same State 1) | – | – | – | 0.0579 | 0.154 | 0.124
GCUCGGCUGAUGGCCCACAUGAGGAUCACCCAUGUGAGUGGGCAGGAUAUCUAGAUUAAGGAUGUAGAGAAGGGCCUGCCGAGC [SameState NG3 #36] (Eterna round: R96, puzzle: Same State NG 3) | 2.29 | 0.019 | 0.559 | – | – | –
GCGAGCGUACUUGCAACAUGAGGAUCACCCAUGUUAACUGGACAGGAUAUGGUACCGUUUCGGUACCAGAAGGGUUUAUCAUGU [JL SSNG3 3.66] (Eterna round: R96, puzzle: Same State NG 3) | 0.0923 | 0.0928 | 0.116 | – | – | –
GUAGCAUACCGAGGAUAUUCAUAUUAUAAACAUGAGGAUCACCCAUGUGGUCGAUUACGACCUUGGGAGAAGGCGGAAUGCUAC [Xeonanis - 20 Mod36] (Eterna round: R96, puzzle: Same State NG 2) | 0.0464 | 0.462 | 0.725 | – | – | –
GUACAGAUUAUAGGAUAUCACGUCGAAUAGACGUGAGAAGGAUAAUCACACAUGAAUAUUAAUACAUGAGGAUCACCCAUGUAC [SSNG1/17-A1] (Eterna round: R96, puzzle: Same State NG 1) | 0.0167 | 0.0129 | 0.0171 | – | – | –
AUUAAUAAUCGAGGAUAUCACGUCGAAUAGACGUGAGAAGGCGAUCAUAACAUGAGGAUCACCCAUGUAUUACAUGAAGUUAAU [SSNG1/4-B1] (Eterna round: R96, puzzle: Same State NG 1) | – | 0.02 | – | – | – | –
AGGAAGGAGACUGAGGAUAUCGUUGAGAGGACAUGAGGAUCACCCAUGUGUAUAGGAUUGGAGAACGAGAAGGCAGAGGAGUGGG [JR_SS2_Sub047] (puzzle: Same State 2) | – | – | – | 0.058 | 0.0762 | 0.101
GCGAGCGUACUUGCUACAUGAGGAUCACCCAUGUUCGUUGGACAGGAUAUGGUACCGUUUCGGUACCAGAAGGGUUCACAUGUG [JL SSNG3 3.78] (Eterna round: R96, puzzle: Same State NG 3) | 0.142 | 0.158 | 0.242 | – | – | –

Sequence | apparent KD of MS2 coat protein (input ligand: FMN 200 uM) [µM] | apparent KD of MS2 coat protein [1] [µM] | apparent KD of MS2 coat protein (input ligand: none) [µM] | apparent KD of MS2 coat protein [2] [µM] | apparent KD of MS2 coat protein [3] [µM] | apparent KD of MS2 coat protein [4] [µM]
GUUAAACAUGAGGAUCACCCAUGUCAAUGUAGUCGAGGAUAUGGGCAGCUAUGAGGCGUACUAGAAGGCGAAAAGU [Mat - Same State 1 - Mod of JL - D13] (puzzle: Same State 1) | – | – | – | 0.117 | 0.26 | 0.535
GUGCUCGUGUGAGGAUAUGCUUCCGUUUCGGCUGCAGAAGGUACUAUUAUACAUGAGGAUCACCCAUGUCUCUUUUCUCCGGUG [salish99_SSNG1_r04_913] (Eterna round: R96, puzzle: Same State NG 1) | 0.0383 | 0.0274 | 0.0372 | – | – | –
ACAUGAGACUUAGGAUAUGUUGUACCUACAUGUGACAUGAGGAUCACCCAUGUGGUAAGUAUGAGGCAGAAGGAAGAGAUAUGU [Equivalence 39 - Jieux - Same State NG 2] (Eterna round: R96, puzzle: Same State NG 2) | 0.0235 | 0.0459 | 0.0731 | – | – | –
UUUACUUUCAUAGGAUAUCAUGCGAAAAUUGCGUGAGAAGGGUGAACACUGUCUUUCUAAGAGUACAUGAGGAUCACCCAUGUA [SameState NG1 #65] (Eterna round: R96, puzzle: Same State NG 1) | 0.113 | 0.102 | 0.131 | – | – | –
UACAAUCUAUCUGAGGAUAUCAUGAAAAAAACAUGAGGAUCACCCAUGUGCAGGAAAACUGCAUAUGAGAAGGCAGAUAGAUUGU [salish99_SS2_r3_006] (Eterna round: R96, puzzle: Same State 2) | – | 0.585 | – | – | – | –
AAUUAAGAUCGAGGAUAUCACGUCGAAUAGACGUGAGAAGGCGAUCAUAACAUGAGGAUCACCCAUGUAUUACAUGAAUUAAUU [SSNG1/4-B1] (Eterna round: R96, puzzle: Same State NG 1) | 0.0236 | 0.0229 | 0.027 | – | – | –
CGGCGCUGUCGAGAGGAUAUGCGGUGAUGGACAUGAGGAUCACCCAUGUUAGCGAUAGCAUUACGGUAGAAGGCUCUACAGUUGC [Soteed Omei mod 8] (puzzle: Same State 2) | – | – | – | 0.0192 | 0.0749 | 0.0669
GCUAGAAUUAAAGCCAACAUGAGGAUCACCCAUGUAUGUUGGCAGGAUAUCGUUUGCUUUGCAAACGAGAAGGGCCAUACUAGC [JL SSNG3 1.08] (Eterna round: R96, puzzle: Same State NG 3) | 0.0477 | 0.0981 | 0.134 | – | – | –
UUUAGAUAGCGAGGAUAUCGCGAGGAUCACCCGUGAGAAGGCGCAGAGCCGAGGAUCACCCGGCUGAUCCUGAGAAGGAGGUCA (Eterna round: R96, puzzle: Same State NG 1) | 0.0923 | 0.155 | 0.245 | – | – | –
GGAUGAUUAACAGGAUAUCAUUUGUAAAUUGGUUGAGAAGGGUUAAUGAUUUACACGACCUGUUACAUGAGGAUCACCCAUGUU [SameState NG1 #2] (Eterna round: R96, puzzle: Same State NG 1) | 0.041 | 0.0338 | 0.0472 | – | – | –
UAGGAACAUGAGGAUCACCCAUGUACCUCAUAUGGAGAAACACAGGAUAUACUUAGCGAAAGAGAGUAGAAGGGUGAAGAGAGG [Default title] (Eterna round: R96, puzzle: Same State NG 3) | 0.0194 | 0.0308 | 0.0326 | – | – | –
AGGCUCGUGCUAGGAUAUCUAGGAUAUGGACGAGGAUUACCCGAGCAGCAUUAGCGCACCAGAGGAGAGAAGGAGCGACAUGCG [pwkr ssNG2 2F5 2FMN.11] (Eterna round: R96, puzzle: Same State NG 2) | 0.00578 | 0.00491 | 0.016 | – | – | –
CCAAUGUACAAUUUAGAUCUACAUGAGGAUCACCCAUGUACAGAGGAUAUCAGCUCGAUUAGAGCUGAGAAGGCUGAAUUAAUU [SSNG3/3-A2] (Eterna round: R96, puzzle: Same State NG 3) | 0.137 | 0.135 | 0.266 | – | – | –
UACAAACGCGGAGGAUAUGGGCGAGGCGCAGAGGUCUGCGUCAAAACAUGAGGAUCACCCAUGUCCCAGAAGGCCGCGCAAACU [Anorra] (Eterna round: R96, puzzle: Same State NG 2) | 0.0163 | 0.0738 | 0.0561 | – | – | –
UGUCCAGCCUGUGCUGGUCUUUAGCAUGUACAUGAGGAUCACCCAUGUCGUGUACAUGCUUUUUGCUCGUCUUUAAA [Photon Torp-05] (puzzle: Sensor for hsa-mir-208a) | – | – | – | 0.0689 | 0.0259 | 0.0922
